Article PMC11082181

Assays:
[1] = biological target: Relatlimab analog, anti-LAG-3 benchmark (human); assay: BLI; ZGGS15 or BM (4 µg/mL) loaded to protein A probes; FcγRI 30 to 1 nM in solution; 150 s association, 200 s dissociation; BLI kinetics assay buffer; 25 °C, 1000 rpm
[2] = biological target: ZGGS15, anti-LAG-3/TIGIT bispecific IgG4 antibody (human); assay: as above

Relatlimab analog, anti-LAG-3 benchmark (human), sequence (heavy, as listed by the source, chain 1 of 2): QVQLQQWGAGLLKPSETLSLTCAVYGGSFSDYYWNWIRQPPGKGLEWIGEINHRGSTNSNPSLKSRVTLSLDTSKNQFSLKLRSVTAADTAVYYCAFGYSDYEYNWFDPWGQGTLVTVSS
Relatlimab analog, anti-LAG-3 benchmark (human), sequence (light, as listed by the source, chain 2 of 2): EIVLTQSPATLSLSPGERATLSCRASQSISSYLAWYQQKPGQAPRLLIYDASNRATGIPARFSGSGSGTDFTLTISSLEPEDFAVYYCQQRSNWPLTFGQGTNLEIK

Kd [1]: 3 nM
Kd [2]: 2.6 nM
Substance: human Fc-gamma receptor I (FcγRI) (from UniProt P12314 16-374)
